The series addresses cathepsin B (Homo sapiens, UniProt P07858). In words: Release of a drug moiety from a conjugate in presence of cathepsin. Type of series: in vitro ADME. To be noted: 0.2 units cathepsin B, sodium acetate buffer pH 5.5, 1 mM Cys, 2 hours at 40° C., HPLC ESI-MS. On the procedure:
As an example, that is not intended to limit the scope of the invention, the release of a compound of formula (II) from the conjugate was performed in presence of cathepsin as reported below.
The conjugate A1 was incubated with 0.2 units of cathepsin B in sodium acetate buffer pH 5.5 and 1 mM Cys for 2 hours at 40° C.

Each structure is given as a SMILES string.

As for `Cc1cc2c(OC(=O)N(C)CCN(C)C(=O)OCc3ccc(NC(=O)[C@H](CCCNC(N)=O)NC(=O)[C@@H](NC(=O)CCCCCN4C(=O)CC(SC[C@H](N)C(=O)O)C4=O)C(C)C)cc3)cc3c(c2s1)[C@H](CCl)CN3C(=O)c1cc2cc(OCCN3CCCC3)ccc2[nH]1` (stereo partly shown) [A1], the “release of the compound of formula (II) from the conjugate (breaking of the Z peptidic linker)” value was “Disappearance of the conjugate A1 and release of the corresponding compound of formula (II)”.
